Laboratory results: article PMC10175261

How the values were obtained:
[1] = target: PriA;PriB C-term Arg44Ala LD (Escherichia coli;Escherichia coli, UniProt P17888;P07013 1-732;1-104+1-104, |R44A;internal_change); conditions: protein: recombinant;recombinant; tags: N-terminal His;; copies: 1;1; label: 5'-32P on 3L-98 (strand 2); fork 1:2 1:3; ssDNA lagging arm (strand 2)
[2] = target: PriA;PriB N-term Arg44Ala LD (Escherichia coli;Escherichia coli, UniProt P17888;P07013 1-732;1-104+1-104, |R44A;internal_change); conditions: protein: recombinant;recombinant; tags: N-terminal His;; copies: 1;1; label: 5'-32P on 3L-98 (strand 2); fork 1:2 1:3; ssDNA lagging arm (strand 2)
[3] = target: PriA CRR triple variant (Escherichia coli, UniProt P17888 1-732, D438A;T482A;H483A); conditions: protein: recombinant; tags: N-terminal His; label: 5'-32P on 3L-98 (strand 2); fork 1:2 1:3; ssDNA lagging arm (strand 2)
[4] = target: PriA Asp438Ala (Escherichia coli, UniProt P17888 1-732, D438A); conditions: protein: recombinant; tags: N-terminal His; label: 5'-32P on 3L-98 (strand 2); fork 1:2 1:3; ssDNA lagging arm (strand 2)
[5] = target: PriA His483Ala (Escherichia coli, UniProt P17888 1-732, H483A); conditions: protein: recombinant; tags: N-terminal His; label: 5'-32P on 3L-98 (strand 2); fork 1:2 1:3; ssDNA lagging arm (strand 2)
[6] = target: PriA Thr482Ala (Escherichia coli, UniProt P17888 1-732, T482A); conditions: protein: recombinant; tags: N-terminal His; label: 5'-32P on 3L-98 (strand 2); fork 1:2 1:3; ssDNA lagging arm (strand 2)
[7] = target: PriA;PriB (Escherichia coli;Escherichia coli, UniProt P17888;P07013 1-732;1-104, |); conditions: protein: recombinant;recombinant; tags: N-terminal His;none; copies: 1;2; label: 5'-32P on 3L-98 (strand 2); fork 1:2 1:3; ssDNA lagging arm (strand 2)

B1: Fork 1 (structured_DNA)
DNA 1: GCAAGCCTTCTACAGGTCGACCGTCCATGGCGACTCGAGACCGCAATACGGATAAGGGCTGAGCACGCCGACGAACATTCACCACGCCAGACCACGTA
DNA 2: GACTATCTACGTCCGAGGCTCGCGCCGCAGACTCATTTAGCCCTTATCCGTATTGCGGTCTCGAGTCGCCATGGACGGTCGACCTGTAGAAGGCTTGC
DNA 3: TACGTGGTCTGGCGTGGTGAATGTTCGTCGGCGTGCTC
[1]
  binding result: binds
[2]
  binding result: binds
[3]
  binding signal: 95.8 ± 3.1 % fork shifted
[4]
  binding signal: 95 ± 1.9 % fork shifted
[5]
  binding signal: 92.2 ± 3.7 % fork shifted
[6]
  binding signal: 91.3 ± 6.5 % fork shifted
[7]
  binding result: binds
